# Assay results: US20120064090A1, “THERAPEUTIC AGENT FOR CANCER HAVING REDUCED SENSITIVITY TO MOLECULAR TARGET DRUG AND PHARMACEUTICAL COMPOSITION FOR ENHANCING SENSITIVITY TO MOLECULAR TARGET DRUG” (KRINGLE PHARMA INC., priority 2009, published 2012)
# B1: NK4 (protein, listed as Homo sapiens)
# chain 1: MWVTKLLPALLLQHVLLHLLLLPIAIPYAEGQRKRRNTIHEFKKSAKTTLIKIDPALKIKTKKVNTADQCANRCTRNKGLPFTCKAFVFDKARKQCLWFPFNSMSSGVKKEFGHEFDLYENKDYIRNCIIGKGRSYKGTVSITKSGIKCQPWSSMIPHEHSFLPSSYRGKDLQENYCRNPRGEEGGPWCFTSNPEVRYEVCDIPQCSEVECMTCNGESYRGLMDHTESGKICQRWDHQTPHRHKFLPERYPDKGFDDNYCRNPDGQPRPWCYTLDPHTRWEYCAIKTCADNTMNDTDVPLETTECIQGQGEGYRGTVNTIWNGIPCQRWDSQYPHEHDMTPENFKCKDLRENYCRNPDGSESPWCFTTDPNIRVGYCSQIPNCDMSHGQDCYRGNGKNYMGNLSQTRSGLTCSMWDKNMEDLHRHIFWEPDASKLNENYCRNPDDDAHGPWCYTGNPLIPWDYCPISRCEGDTTPTIV
# chain 2: MWVTKLLPALLLQHVLLHLLLLPIAIPYAEGQRKRRNTIHEFKKSAKTTLIKIDPALKIKTKKVNTADQCANRCTRNKGLPFTCKAFVFDKARKQCLWFPFNSMSSGVKKEFGHEFDLYENKDYIRNCIIGKGRSYKGTVSITKSGIKCQPWSSMIPHEHSYRGKDLQENYCRNPRGEEGGPWCFTSNPEVRYEVCDIPQCSEVECMTCNGESYRGLMDHTESGKICQRWDHQTPHRHKFLPERYPDKGFDDNYCRNPDGQPRPWCYTLDPHTRWEYCAIKTCADNTMNDTDVPLETTECIQGQGEGYRGTVNTIWNGIPCQRWDSQYPHEHDMTPENFKCKDLRENYCRNPDGSESPWCFTTDPNIRVGYCSQIPNCDMSHGQDCYRGNGKNYMGNLSQTRSGLTCSMWDKNMEDLHRHIFWEPDASKLNENYCRNPDDDAHGPWCYTGNPLIPWDYCPISRCEGDTTPTIV
# notes: recombinant human NK4 protein; N-terminal hairpin domain and four kringle domains of HGF α chain, antagonist of HGF
# How the values were obtained:
# [1] = test system: PC-9; experiment: Effects of SU11274 on PC-9 with HGF-induced gefitinib-resistance; assay type: cell-based, human; details: HGF 20 ng/mL, gefitinib 0.3 μM, antibody 1 μg/mL, NK4 0.3 μM, SU11274 0.3 μM, 72 hours, FIG. 11
# Method: PC-9 was seeded at 2×10^3 cells/well on 96-well plates and cultured for 24 hours. […] After that, 50 μL of an MTT solution (2 mg/mL, manufactured by Sigma) was added and incubation was performed at 37° C. for 2 hours. The culture media were removed, and dark blue crystals were dissolved by adding 100 μL of DMSO. The absorbance was measured with a microplate reader MTP-120 (Corona Electric Co., Ltd.) at the detection and reference wavelengths of 550 nm and 630 nm, respectively. The growth rate was shown as a relative value based on an untreated control. Each experiment was performed in triplicate and repeated thrice independently.
# [2] = test system: tumor formed of PC-9 and MRC-5 cells; experiment: Xenograft tumor (PC-9 + MRC-5) transplanted into SCID mice; assay type: in vivo; details: PC-9 + MRC-5 s.c., days 4 to 16, gefitinib 25 mg/kg/day oral, antibody 5 mg/kg/day i.p., NK4 9 mg/kg/day i.p., FIG. 6
# Method: SCID mice (female, 5 weeks old) were purchased from CLEA Japan.
# 100 μL of a cell suspension containing PC-9 (5×10^6 cells) and MRC-5 (5×10^6 cells) was subcutaneously inoculated from the back skin of each SCID mouse. Four days later, mice bearing a tumor exceeding 4 mm in diameter were randomly divided into 6 groups (5 mice per group) as shown in Table 1.
# In gefitinib-treated groups (groups 4, 5 and 6 in Table 1), gefitinib (25 mg/kg/day) was orally administered once daily in the morning for 13 days from 4 days to 16 days after cell inoculation. In gefitinib-non-treated groups (groups 1, 2 and 3 in Table 1), a water containing 1% Tween80 was orally administered once daily in a similar manner to the above. In anti-HGF neutralizing antibody-treated groups (groups 2 and 5 in Table 1), the anti-HGF neutralizing antibody (5 mg/kg/day) was intraperitoneally administered once daily immediately after gefitinib administration for 13 days from 4 days to 16 days after cell inoculation. In NK4-treated groups (groups 3 and 6 in Table 1), NK4 (9 mg/kg/day) was intraperitoneally administered in divided portions twice a day in the morning immediately after gefitinib administration and in the evening for 13 days from 4 days to 16 days after cell inoculation.
# The width and length of tumor were measured every other day, and the tumor area (width×length) was calculated. […]
# [3] = test system: H1975; experiment: Effects of anti-human HGF neutralizing antibody or NK4 on H1975 with HGF-induced CL-387,785-resistance; assay type: cell-based; details: CL-387,785 0.3 μM, HGF 50 ng/mL, antibody 2 μg/mL, NK4 0.3 μM, 72 hours, FIG. 10
# Method: In the same manner as in the above (a), H1975 was seeded at 2×10^3 cells/well on 96-well plates. […] The degree of cell growth was measured by the MTT method and the growth rate was calculated in the same manner as in the above (a).
# [4] = test system: H1975; experiment: Effects of SU11274 on H1975 with HGF-induced CL-387,785-resistance; assay type: cell-based, human; details: CL-387,785 0.3 μM, HGF 50 ng/mL, antibody 2 μg/mL, NK4 0.3 μM, 72 hours, FIG. 12
# Method: H1975 was seeded at 2×10^3 cells/well on 96-well plates and cultured for 24 hours. […] The degree of cell growth was measured by the MTT method and the growth rate was calculated in the same manner as in the above (a).
molecule,measurement,setting,value
B1,inhibition of HGF-induced hyposensitivity of PC-9 to gefitinib,[1],significantly inhibited
same,tumor volume / tumor growth over time,[2],tumor growth rate was slightly reduced
same,"inhibition of HGF-induced hyposensitivity of H1975 to CL-387,785",[3],inhibited the HGF-induced hyposensitivity
same,"inhibition of HGF-induced hyposensitivity of H1975 to CL-387,785",[4],significantly inhibited
